Drawing on article PMC5686127 (2017), this text covers Kd for one molecule.

Experiment [1] addresses T1, CHD4 PHD1-linker (aa 361–443) (human, UniProt Q14839 361-443). Nature of the experiment: 75 mM NaCl.
A further experiment addresses CHD4 PHD2 (443–498) (human, UniProt Q14839 443-498). In words: 150 mM NaCl.
Another experiment concerns the target CHD4 PHD1 (aa 362–417) (human, UniProt Q14839 362-417). Nature of the experiment: 150 mM NaCl.
For another experiment, the target named is CHD4 PHD1/2 (aa 361–503) (human, UniProt Q14839 361-503). Nature of the experiment: 150 mM NaCl.
Sequence of CHD4 PHD1/2 (aa 361–503) (Q14839 361-503): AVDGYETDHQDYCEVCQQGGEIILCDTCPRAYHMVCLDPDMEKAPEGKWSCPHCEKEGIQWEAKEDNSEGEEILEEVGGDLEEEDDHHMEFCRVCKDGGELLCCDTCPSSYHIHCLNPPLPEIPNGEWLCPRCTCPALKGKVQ
Experiment [2] has as its target CHD4 linker-PHD2 (aa 414–503) (human, UniProt Q14839 414-503). Nature of the experiment: 150 mM NaCl.
Experiment [3] addresses T1, CHD4 PHD1-linker (aa 361–443). In words: 150 mM NaCl.

T1 sequence (Q14839 361-443): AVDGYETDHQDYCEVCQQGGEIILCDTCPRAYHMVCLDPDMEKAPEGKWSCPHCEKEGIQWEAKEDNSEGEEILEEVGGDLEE
Sequence of CHD4 PHD2 (443–498) (Q14839 443-498): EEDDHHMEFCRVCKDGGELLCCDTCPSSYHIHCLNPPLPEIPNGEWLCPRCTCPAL
Sequence of CHD4 PHD1 (aa 362–417) (Q14839 362-417): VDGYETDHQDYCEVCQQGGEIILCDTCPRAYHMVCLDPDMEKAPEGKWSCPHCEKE
Sequence of CHD4 linker-PHD2 (aa 414–503) (Q14839 414-503): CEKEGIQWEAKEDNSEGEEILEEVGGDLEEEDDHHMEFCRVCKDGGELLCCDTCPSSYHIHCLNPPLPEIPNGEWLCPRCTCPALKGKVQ

B1: histone H3 peptide (aa 1–12) (peptide)
peptide: ARTKQTARKSTG
The Kd is the constant that tells how readily two partners part at equilibrium. A high value points to a looser complex. On to B1, for which the dissociation constant (Kd) in experiment [1] is 300 nM; in the experiment with CHD4 PHD2 (443–498) it was 3000 nM; with CHD4 PHD1 (aa 362–417) it was 18000 nM; with CHD4 PHD1/2 (aa 361–503), 220 nM; in experiment [2], 270 nM; in experiment [3] it was 500 nM.
